Data on five substances can be found in patent US20090105116A1.

Assay [1] deals with human α-thrombin (human) (UniProt P00734). Description: amidolytic assay with chromogenic substrate S-2238, Lineweaver-Burk, 25° C.
Assay [2] has the same target. Description: cell-based or functional assay.
Assay [3] has as its target P3182, Bbs-R-(D-Pip)-Gly-Glu-Gln-Lys-Leu-Ile-Ser-Glu-Glu-Asp-Leu-Gly-Asp-Phe-Glu-Glu-Ile-Pro-Glu-Glu-Tyr-Leu-Gln. Description: cell-based or functional assay.

Broadly, the Ki is the equilibrium dissociation constant of an inhibitor or competing ligand from its target. High values mean weaker binding, low ones tighter binding.

P3182, Bbs-R-(D-Pip)-Gly-Glu-Gln-Lys-Leu-Ile-Ser-Glu-Glu-Asp-Leu-Gly-Asp-Phe-Glu-Glu-Ile-Pro-Glu-Glu-Tyr-Leu-Gln, sequence (peptide, as listed by the source, form in doubt): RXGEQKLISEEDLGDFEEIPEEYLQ

In assay [1], “P3170, Bbs-R-(D-Pip)-Gly-(Ser-Pro-His-Tyr(P)-Glu-Lys-Val-Ser-Gly)-Asp-Phe-Glu-Glu-Ile-Pro-Glu-Glu-Tyr-Leu-Gln (peptide)” came in with a Ki of 1.5 nM. The substance also displayed an IC50, nM (25° C.), fibrinogen clotting assay in assay [2] of 0.7 nM.

The substance “P3291, Bbs-Arg-dPip-Gly-Arg-Lys-Ser-Leu-Thr-Ile-Tyr-Ala-Gln-Val-Gln-Lys-Gly-Asp-Phe-Glu-Glu-Ile-Pro-Glu-Glu-Tyr-Leu-Gln (peptide)” gave an IC50, nM, fibrinogen clotting assay (the text says 25° C.) in assay [2] of 7 nM.

For “P3162, Bbs-R-(D-Pip)-Gly-(Ser-Pro-His-Tyr(P)-Glu-Lys-Val-Ser-Gly)2-Asp-Phe-Glu-Glu-Ile-Pro-Glu-Glu-Tyr-Leu-Gln (peptide)”, the IC50, nM (25° C.), fibrinogen clotting assay in assay [2] worked out at 19 nM.

On to “P3172-P3165, disulfide-linked Bbs-Arg-(D-Pip)-Gly-Cys...Cys-(Gly-Ser)8-Gly-Asp-Phe-Glu-Glu-Ile-Pro-Glu-Glu-Tyr-Leu-Gln (peptide)”, for which the IC50, nM (37° C.), fibrinogen clotting assay in assay [2] was 1.1 nM.

In assay [3], anti-c-myc antibody 9E10 (Sigma) gave a clotting onset time with 150 nM peptide, 0.6 nM thrombin and 1.2 µM antibody of 230 s.
